{"source": "paper PMC12574955", "about": "“The Ync13–Rga7–Rng10 complex selectively coordinates secretory vesicle trafficking and secondary septum formation during cytokinesis” (PLOS Biology, 2025)", "binders": {"B1": {"name": "Rga7-6xHis (natural protein, Schizosaccharomyces pombe, UniProt O94466 1-695, looked up)", "chain": "MLSAPSSSTTPASPPTSPPNTTSSDDFAVLKEPKVEAILNSELGLAILNDRIKDYLLTCKELAGFFKKRSILEEESGKNLQKLAKSYLETFQSKHHSPQSFSASVITSMEIHEQLANHSLTLQKTLSAFSDQVIEFHKNAERKRKSIKEYAKKQENAYLEAVMQMDKSKSRFKGAETEYNRALDNKNTGDSQKKVGFFKPKSNAQLTKLEDEARLKAENAESDMHSKIENAQNVQKQLLCIHRPNYIKQFFSLQREIESSLIANYLRYTKLCESNTLLNGLTIRPQKPTPTNCGLQHALDNINANTDFVQYVLHASIKHEDNKNPTDASKTKIIQPPSSYGTGSSAGKTNPPVNPTIKVTAAIPSPLQNTNPAPSTFPNPSVASPAFPNSSTSNPSTAPASASPLASTLKPSTANDTNGSSSSSSSNPRTSSPLASNAENKPPVAQQSPPVLLPTLPPIQTTTIQTSREVAPPPSSINSNRAASPFRPTSVSPQPSSPTKSLLFGARLDAIILREHSNIPNIVMQCTSQVENFGLNLQGIYRVPSSSARVNMLRSQFENNPLLQLHTPEDYENDVHAVADLLKIFFRELREPLIPDNHQRDFIDAGNVEDESRRRDAVHRAINDLPDANYSTIRHLTIHLAKIKENSDVNKMSTNNLAIIWGPTIIKQATIPEISSFSRTIEILIDYCFTIFDYD", "notes": "Rga7, F-BAR protein and Rho2 GAP of Schizosaccharomyces pombe; FL Rga7 in pET21a; also called Rga7-6His; not shown: His6, C-terminal, kept"}}, "target": "T1, MBP-Ync13-6xHis (Schizosaccharomyces pombe, UniProt O13683 1-1237)", "T1 construct": "Ync13, Munc13/UNC-13 family protein of Schizosaccharomyces pombe; FL cDNA in pET21a-MBP; MBP-TEV-GGSGGS precedes Ync13; also called MBP-Ync13-6His; not shown: MBP, N-terminal, kept; His6, C-terminal, kept", "T1 sequence (looked up)": "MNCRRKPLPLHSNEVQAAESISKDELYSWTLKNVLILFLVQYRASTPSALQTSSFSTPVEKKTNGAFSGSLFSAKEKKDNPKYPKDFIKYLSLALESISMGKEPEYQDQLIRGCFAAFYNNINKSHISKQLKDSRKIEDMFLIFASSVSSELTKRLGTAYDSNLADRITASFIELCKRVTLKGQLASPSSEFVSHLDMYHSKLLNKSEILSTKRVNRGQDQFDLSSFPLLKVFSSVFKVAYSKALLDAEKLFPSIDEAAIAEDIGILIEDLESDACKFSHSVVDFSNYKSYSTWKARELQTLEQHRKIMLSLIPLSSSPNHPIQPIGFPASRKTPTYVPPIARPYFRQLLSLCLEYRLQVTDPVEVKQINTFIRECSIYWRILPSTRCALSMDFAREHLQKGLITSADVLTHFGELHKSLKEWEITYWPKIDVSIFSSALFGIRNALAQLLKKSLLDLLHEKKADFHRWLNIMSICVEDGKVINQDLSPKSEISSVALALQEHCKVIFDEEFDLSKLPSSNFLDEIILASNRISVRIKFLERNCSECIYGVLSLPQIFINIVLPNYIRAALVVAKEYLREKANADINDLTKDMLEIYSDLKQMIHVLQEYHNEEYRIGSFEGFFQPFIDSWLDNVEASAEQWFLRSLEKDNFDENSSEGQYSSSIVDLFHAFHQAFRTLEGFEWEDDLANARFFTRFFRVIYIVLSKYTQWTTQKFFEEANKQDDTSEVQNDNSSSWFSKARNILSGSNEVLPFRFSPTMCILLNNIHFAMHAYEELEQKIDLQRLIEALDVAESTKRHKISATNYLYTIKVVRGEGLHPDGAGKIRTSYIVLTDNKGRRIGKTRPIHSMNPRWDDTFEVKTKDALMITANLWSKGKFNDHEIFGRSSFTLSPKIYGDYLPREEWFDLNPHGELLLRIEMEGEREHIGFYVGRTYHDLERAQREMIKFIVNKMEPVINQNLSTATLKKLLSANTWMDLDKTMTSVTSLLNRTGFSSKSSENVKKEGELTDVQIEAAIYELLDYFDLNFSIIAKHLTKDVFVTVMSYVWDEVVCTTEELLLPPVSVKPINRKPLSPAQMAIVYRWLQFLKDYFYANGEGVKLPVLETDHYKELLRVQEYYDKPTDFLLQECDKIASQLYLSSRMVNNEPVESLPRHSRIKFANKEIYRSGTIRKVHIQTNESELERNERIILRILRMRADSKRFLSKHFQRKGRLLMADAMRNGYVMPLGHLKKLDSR", "test": "supernatant depletion assay; Rga7-6xHis at 4 µM titrated with MBP-Ync13-6xHis immobilized on Cobalt beads; beads pelleted at 16,000g, supernatant on SDS-PAGE, Coomassie, bound fraction fitted", "conditions": "both partners purified"}
{"binder": "B1", "values": [{"measurement": "Kd", "value": 10, "unit": "µM"}]}
